Data on 42 molecules can be found in PMC9352680, “A comprehensive thermodynamic model for RNA binding by the Saccharomyces cerevisiae Pumilio protein PUF4”.

Where a chain is given by its changes, count along the chain named. Names may count otherwise.

This data set has as its target T1, PUF4 RNA-binding domain (Saccharomyces cerevisiae, UniProt P25339 537-888).
T1 sequence: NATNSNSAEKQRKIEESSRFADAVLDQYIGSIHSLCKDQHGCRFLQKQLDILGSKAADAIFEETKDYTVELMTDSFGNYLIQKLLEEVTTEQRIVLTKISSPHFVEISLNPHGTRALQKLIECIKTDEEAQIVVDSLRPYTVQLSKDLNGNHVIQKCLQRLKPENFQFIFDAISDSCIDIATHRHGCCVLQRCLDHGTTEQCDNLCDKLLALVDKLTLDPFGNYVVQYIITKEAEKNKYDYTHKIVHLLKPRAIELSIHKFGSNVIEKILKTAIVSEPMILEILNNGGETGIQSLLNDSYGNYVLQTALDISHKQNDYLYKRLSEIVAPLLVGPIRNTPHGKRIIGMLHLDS
Briefly: Mg; RNA-MaP; 20 mM Na-HEPES pH 7.4, 30 mM KOAc, 0.75 mM MgCl2, 0.1% Tween-20, 5% glycerol, 0.1 mg/mL BSA, 2 mM DTT; 25 C; 0.0125-409.6 nM protein. Particulars: tags: N-His6-TEV cleaved; C-SNAP kept, Cy3B-labelled; label: tethered on chip by stalled RNA polymerase.

B1: Ic_S2_P3E.1_K3.1_C3.1_H3.1_A3.1_[T5C]_[A6T]_F3.1_[A8T]_T3.1 (ssRNA)
RNA: UUUGAUUAAUAUGAUAUCGUUCUUUCUUGUACUUUUUCUUUCUCGAUAUCAUAUUAAUCUUU
Usually Kd stands for the concentration at which binding is half-saturated. In the case of B1, the Kd was 9.88 nM.

B2: Ic_S2_P3E.1_K3.1_C3.1_H3.1_A3.1_[T5A]_F3.1_[T7C]_[A8T]_T3.1 (ssRNA)
RNA: B1 RNA with C32A, U33A, U34C
B2 gave a Kd of 19.9 nM.

B3: Ic_S2_P3E.1_K3.1_C3.1_H3.1_A3.1_[A6T]_F3.1_[T7C]_[A8G]_T3.1 (ssRNA)
RNA: B1 RNA with C32U, U34C, U35G
Take B3: binding was characterised by a dissociation constant (Kd) of 234 nM. Compared with the last molecule, the Kd is about 12-fold higher.

B4: Ic_S2_P3E.1_K3.1_C3.1_H3.1_A3.1_[T5A]_[A6T]_F3.1_[T7A]_[A8C]_T3.1 (ssRNA)
RNA: B1 RNA with C32A, U34A, U35C
As to B4, the Kd came out at 158 nM.

B5: Ic_S2_P3E.1_K3.1_C3.1_H3.1_A3.1_[T5A]_[A6C]_F3.1_[T7A]_[A8G]_T3.1 (ssRNA)
RNA: B1 RNA with C32A, U33C, U34A, U35G
Turning to B5, the Kd was found to be 947 nM.

B6: Ic_S2_P3E.1_K3.1_C3.1_H3.1_A3.1_[T5A]_[A6T]_F3.1_[T7A]_[A8T]_T3.1 (ssRNA)
RNA: B1 RNA with C32A, U34A
Molecule B6 gave a Kd of 11.6 nM.

B7: Ic_S2_P3E.1_K3.1_C3.1_H3.1_A3.1_[A6G]_F3.1_[T7G]_[A8C]_T3.1 (ssRNA)
RNA: B1 RNA with C32U, U33G, U34G, U35C
B7 yielded a Kd of 950 nM.

B8: Ic_S2_P3E.1_K3.1_C3.1_H3.1_A3.1_[T5C]_F3.1_[T7C]_[A8G]_T3.1 (ssRNA)
RNA: B1 RNA with U33A, U34C, U35G
As to B8, the equilibrium dissociation constant (Kd) came to 31.5 nM.

B9: Ic_S2_P3E.1_K3.1_C3.1_H3.1_A3.1_[T5C]_F3.1_[T7C]_[A8C]_T3.1 (ssRNA)
RNA: B1 RNA with U33A, U34C, U35C
As to B9, the affinity, expressed as Kd, was 17.3 nM.

B10: Ic_S2_P3E.1_K3.1_C3.1_H3.1_A3.1_[T5A]_[A6T]_F3.1_[A8C]_T3.1 (ssRNA)
RNA: B1 RNA with C32A, U35C
Regarding B10, binding was characterised by a dissociation constant (Kd) of 120 nM.

B11: Ic_S2_P3E.1_K3.1_C3.1_H3.1_A3.1_F3.1_T3.1 (ssRNA)
RNA: B1 RNA with C32U, U33A, U35A
Take B11: the Kd came out at 1.38 nM.

B12: Ic_S2_P3E.1_K3.1_C3.1_H3.1_A3.1_[A6C]_F3.1_[T7C]_[A8C]_T3.1 (ssRNA)
RNA: B1 RNA with C32U, U33C, U34C, U35C
For B12, the Kd came out at 132 nM.

B13: Ic_S2_P3E.1_K3.1_C3.1_H3.1_A3.1_[T5A]_[A6C]_F3.1_[T7C]_[A8G]_T3.1 (ssRNA)
RNA: B1 RNA with C32A, U33C, U34C, U35G
Regarding B13, the Kd turned out to be 626 nM. This Kd lies about 4.7-fold higher than the previous one.

B14: Ic_S2_P3E.1_K3.1_C3.1_H3.1_A3.1_[T5C]_F3.1_[T7C]_[A8T]_T3.1 (ssRNA)
RNA: B1 RNA with U33A, U34C
B14 showed a Kd of 2.64 nM.

B15: Ic_S2_P3E.1_K3.1_C3.1_H3.1_A3.1_[T5A]_[A6C]_F3.1_[T7A]_[A8T]_T3.1 (ssRNA)
RNA: B1 RNA with C32A, U33C, U34A
B15 returned a Kd of 8.69 nM.

B16: Ic_S2_P3E.1_K3.1_C3.1_H3.1_A3.1_[T5A]_[A6T]_F3.1_[T7A]_[A8G]_T3.1 (ssRNA)
RNA: B1 RNA with C32A, U34A, U35G
With B16, the Kd came out at 1530 nM.

B17: Ic_S2_P3E.1_K3.1_C3.1_H3.1_A3.1_[A6C]_F3.1_[T7G]_[A8T]_T3.1 (ssRNA)
RNA: B1 RNA with C32U, U33C, U34G
The molecule B17 gave a Kd of 114 nM.

B18: Ic_S2_P3E.1_K3.1_C3.1_H3.1_A3.1_[A6G]_F3.1_[T7C]_[A8C]_T3.1 (ssRNA)
RNA: B1 RNA with C32U, U33G, U34C, U35C
B18 displayed a Kd of 585 nM.

B19: Ic_S2_P3E.1_K3.1_C3.1_H3.1_A3.1_[A6C]_F3.1_[T7A]_[A8G]_T3.1 (ssRNA)
RNA: B1 RNA with C32U, U33C, U34A, U35G
For B19, the Kd stood at 208 nM.

B20: Ic_S2_P3E.1_K3.1_C3.1_H3.1_A3.1_[T5A]_[A6C]_F3.1_[A8G]_T3.1 (ssRNA)
RNA: B1 RNA with C32A, U33C, U35G
On to B20, for which the Kd was determined as 101 nM.

B21: Ic_S2_P3E.1_K3.1_C3.1_H3.1_A3.1_[A6T]_F3.1_[T7C]_[A8C]_T3.1 (ssRNA)
RNA: B1 RNA with C32U, U34C, U35C
B21 displayed a Kd of 76 nM.

B22: Ic_S2_P3E.1_K3.1_C3.1_H3.1_A3.1_[T5A]_[A6C]_F3.1_[T7G]_[A8G]_T3.1 (ssRNA)
RNA: B1 RNA with C32A, U33C, U34G, U35G
On to B22, for which the Kd turned out to be 984 nM.

B23: Ic_S2_P3E.1_K3.1_C3.1_H3.1_A3.1_[T5C]_F3.1_[T7A]_[A8C]_T3.1 (ssRNA)
RNA: B1 RNA with U33A, U34A, U35C
In turn, B23 displayed a Kd of 23.8 nM.

B24: Ic_S2_P3E.1_K3.1_C3.1_H3.1_A3.1_[A6T]_F3.1_[T7G]_[A8C]_T3.1 (ssRNA)
RNA: B1 RNA with C32U, U34G, U35C
The molecule B24 came in with a Kd of 442 nM.

B25: Ic_S2_P3E.1_K3.1_C3.1_H3.1_A3.1_[A6C]_F3.1_[T7A]_[A8T]_T3.1 (ssRNA)
RNA: B1 RNA with C32U, U33C, U34A
The molecule B25 came in with a Kd of 4.83 nM.

B26: Ic_S2_P3E.1_K3.1_C3.1_H3.1_A3.1_[T5C]_F3.1_[T7G]_[A8T]_T3.1 (ssRNA)
RNA: B1 RNA with U33A, U34G
B26 had a Kd of 13.1 nM. This Kd lies about 2.7-fold higher than the previous one.

B27: Ic_S2_P3E.1_K3.1_C3.1_H3.1_A3.1_[T5C]_F3.1_[T7A]_[A8G]_T3.1 (ssRNA)
RNA: B1 RNA with U33A, U34A, U35G
Regarding B27, the affinity, expressed as Kd, was 1630 nM.

B28: Ic_S2_P3E.1_K3.1_C3.1_H3.1_A3.1_[A6T]_F3.1_[T7C]_[A8T]_T3.1 (ssRNA)
RNA: B1 RNA with C32U, U34C
Molecule B28 had a dissociation constant Kd of 11.9 nM.

B29: Ic_S2_P3E.1_K3.1_C3.1_H3.1_A3.1_[T5A]_[A6C]_F3.1_[T7C]_[A8T]_T3.1 (ssRNA)
RNA: B1 RNA with C32A, U33C, U34C
For the molecule B29, the equilibrium dissociation constant (Kd) is 23.5 nM. This Kd is about 2-fold higher than that of the molecule before.

B30: Ic_S2_P3E.1_K3.1_C3.1_H3.1_A3.1_[T5A]_F3.1_[T7A]_[A8C]_T3.1 (ssRNA)
RNA: B1 RNA with C32A, U33A, U34A, U35C
Consider B30, for which binding was characterised by a dissociation constant (Kd) of 621 nM.

B31: Ic_S2_P3E.1_K3.1_C3.1_H3.1_A3.1_[T5A]_[A6T]_F3.1_[A8T]_T3.1 (ssRNA)
RNA: B1 RNA with C32A
In turn, B31 came in with a Kd of 19.2 nM.

B32: Ic_S2_P3E.1_K3.1_C3.1_H3.1_A3.1_[T5C]_F3.1_[T7G]_[A8C]_T3.1 (ssRNA)
RNA: B1 RNA with U33A, U34G, U35C
Regarding B32, the Kd came to 35.4 nM.

B33: Ic_S2_P3E.1_K3.1_C3.1_H3.1_A3.1_[A6C]_F3.1_[T7C]_[A8T]_T3.1 (ssRNA)
RNA: B1 RNA with C32U, U33C, U34C
B33 gave a Kd of 13.7 nM.

B34: Ic_S2_P3E.1_K3.1_C3.1_H3.1_A3.1_[T5A]_[A6T]_F3.1_[T7C]_[A8T]_T3.1 (ssRNA)
RNA: B1 RNA with C32A, U34C
B34 came in with a Kd of 22.5 nM.

B35: Ic_S2_P3E.1_K3.1_C3.1_H3.1_A3.1_[T5A]_[A6T]_F3.1_[T7G]_[A8T]_T3.1 (ssRNA)
RNA: B1 RNA with C32A, U34G
Regarding B35, the Kd was 174 nM. This Kd is about 7.7-fold higher than that of the molecule before.

In the case of UCUCUUUUUAUUUAUCUCUU (ssRNA) [Ib_S1_P3E.1_K3.1_C3.1_H3.1_[G2T]_A3.1_[A6T]_F3.1_T3.1], the Kd was > 2300 nM. For UCUCUUUUUAUCUAUCUCUU (ssRNA) [Ib_S1_P3E.1_K3.1_C3.1_H3.1_[G2T]_A3.1_[A6C]_F3.1_T3.1] the value was > 2300 nM.

UCUCUUUAUAUGUAUCUCUU (ssRNA) [Ib_S1_P3E.1_K3.1_C3.1_H3.1_[G2A]_A3.1_[A6G]_F3.1_T3.1] returned a Kd of 384 nM.

B36: Ic_S2_P4E.1_K4.1_C4.1_H4.1_A4.1_[T5G]_[A6C]_[T7G]_F4.1_[T8G]_[A9T]_T4.1 (ssRNA)
RNA: UUUGAUUAAUAUGAUAUCGUUCUUUCUUGUAGCGGUUUCUUUCUCGAUAUCAUAUUAAUCUUU
B36 showed a Kd of 808 nM.

B37: Ic_S2_P4E.1_K4.1_C4.1_H4.1_A4.1_[T5G]_[A6C]_[T7G]_F4.1_[T8C]_[A9C]_T4.1 (ssRNA)
RNA: B36 RNA with G35C, U36C
In the case of B37, the Kd worked out at 750 nM. The Kd values of the last two molecules are within 1.5-fold of each other.

B38: Ic_S2_P4E.1_K4.1_C4.1_H4.1_A4.1_[T5G]_[A6C]_[T7G]_F4.1_[T8C]_[A9G]_T4.1 (ssRNA)
RNA: B36 RNA with G35C, U36G
For the molecule B38, the Kd was > 2300 nM. Consider UCUCUUUGUAUAUUCUCUCUU (ssRNA) [Ic_S1_P4E.1_K4.1_C4.1_H4.1_A4.1_F4.1_[A9C]_T4.1], for which the Kd was 6.17 nM.
